Test results published in the supplement of paper PMC11136658.

Test system: peptide library, one residue held at a place counted from the Y acceptor
Test: relative phosphorylation of the sub-library (ratio to the mean residue at this position); higher = residue favoured
Outline: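 Peptide library mixtures, biotinylated and centred on Tyr, each fixed one residue at one position from −5 to +5. Purified recombinant kinases were incubated with them for 90 min in 384-well plates alongside 50 μM ATP and γ-32P-ATP, and the captured, rinsed peptides on streptavidin membranes were measured by phosphorimaging and ImageQuant. Normalization divided each position's intensities by the sum of its 18 randomized residues (16 for the Ser/Thr-free library) and multiplied by that number, so that values give phosphorylation relative to the mean randomized residue.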

Chain of TEC, construct: Full length, human (P42680 whole entry, looked up): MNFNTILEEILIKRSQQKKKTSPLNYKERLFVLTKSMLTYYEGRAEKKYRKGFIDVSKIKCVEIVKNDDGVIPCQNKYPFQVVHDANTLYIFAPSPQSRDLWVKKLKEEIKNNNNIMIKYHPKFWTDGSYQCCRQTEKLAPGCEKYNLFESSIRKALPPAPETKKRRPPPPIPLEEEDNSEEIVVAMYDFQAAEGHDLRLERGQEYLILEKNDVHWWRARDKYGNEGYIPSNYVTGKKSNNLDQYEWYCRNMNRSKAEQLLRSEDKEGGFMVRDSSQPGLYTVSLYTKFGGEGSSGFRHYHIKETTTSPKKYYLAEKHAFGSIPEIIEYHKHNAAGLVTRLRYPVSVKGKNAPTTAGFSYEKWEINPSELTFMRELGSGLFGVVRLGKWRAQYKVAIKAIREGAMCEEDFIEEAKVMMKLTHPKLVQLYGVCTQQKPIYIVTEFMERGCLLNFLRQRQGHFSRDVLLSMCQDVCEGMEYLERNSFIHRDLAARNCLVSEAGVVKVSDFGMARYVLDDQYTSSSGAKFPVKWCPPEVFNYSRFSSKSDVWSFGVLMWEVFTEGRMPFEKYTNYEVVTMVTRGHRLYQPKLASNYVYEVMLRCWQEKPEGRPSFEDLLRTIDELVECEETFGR

SYK, construct: Full length, human (from UniProt P43405)
relative phosphorylation
Details | at +1 | at +2 | at +3 | at +4 | at +5 | at -1 | at -2 | at -3 | at -4 | at -5
A fixed | 0.893 | 0.772 | 0.955 | 0.937 | 0.988 | 0.68 | 0.908 | 0.734 | 1.07 | 0.954
D fixed | 1.01 | 1.13 | 0.812 | 1.23 | 1.14 | 4.23 | 2.04 | 2.29 | 1.89 | 1.54
E fixed | 4.05 | 1.74 | 0.941 | 1.39 | 1.2 | 3.04 | 2.21 | 2.61 | 1.96 | 1.49
F fixed | 0.838 | 1.27 | 1.12 | 1.09 | 1 | 0.665 | 0.675 | 0.914 | 1.07 | 1.02
G fixed | 0.363 | 0.78 | 1.2 | 0.965 | 0.96 | 0.379 | 1.04 | 0.896 | 0.964 | 1.03
H fixed | 0.665 | 0.752 | 0.813 | 0.988 | 0.919 | 0.673 | 0.863 | 0.873 | 0.769 | 0.933
I fixed | 1.22 | 1.02 | 1.51 | 0.751 | 0.826 | 1.17 | 0.766 | 0.689 | 0.773 | 0.949
K fixed | 0.25 | 0.588 | 0.584 | 0.875 | 0.916 | 0.204 | 0.46 | 0.459 | 0.593 | 0.681
L fixed | 0.86 | 0.929 | 1.02 | 0.802 | 0.966 | 0.912 | 0.837 | 0.805 | 0.99 | 1.04
M fixed | 0.907 | 0.965 | 0.924 | 1.1 | 0.944 | 0.725 | 0.728 | 0.758 | 0.818 | 0.944
N fixed | 0.505 | 1.11 | 0.771 | 0.896 | 1.03 | 1.02 | 1.21 | 1.26 | 0.868 | 1.13
P fixed | 0.288 | 0.669 | 1.67 | 1.08 | 1.27 | 0.672 | 1.03 | 0.868 | 1.08 | 0.966
Q fixed | 1.1 | 0.972 | 0.761 | 1.11 | 0.983 | 0.674 | 1.13 | 0.864 | 1.11 | 1.08
R fixed | 0.302 | 0.74 | 0.619 | 0.856 | 0.926 | 0.219 | 0.535 | 0.523 | 0.641 | 0.716
S fixed | 1.1 | 1.01 | 0.892 | 0.97 | 0.965 | 0.587 | 1.1 | 0.915 | 0.758 | 0.895
T fixed | 1.23 | 1.02 | 0.907 | 0.932 | 1.1 | 0.779 | 0.832 | 0.885 | 0.651 | 0.725
V fixed | 1.47 | 0.978 | 1.4 | 0.874 | 0.89 | 0.935 | 0.857 | 0.703 | 0.811 | 0.772
W fixed | 0.951 | 1.56 | 1.1 | 1.14 | 0.961 | 0.44 | 0.771 | 0.948 | 1.19 | 1.14
pThr fixed | 3.24 | 2.33 | 0.946 | 1.54 | 1.38 | 6.21 | 3.86 | 2.93 | 2.36 | 1.85
pTyr fixed | 6.41 | 3.62 | 1.53 | 1.73 | 1.32 | 4.49 | 2.56 | 3.83 | 2.99 | 2.2

TEC, construct: Full length, human (from UniProt P42680)
relative phosphorylation
Details | at +1 | at +2 | at +3 | at +4 | at +5 | at -1 | at -2 | at -3 | at -4 | at -5
A fixed | 1.7 | 0.954 | 0.562 | 0.694 | 0.847 | 0.4 | 1.06 | 0.921 | 1.1 | 0.884
D fixed | 0.761 | 0.712 | 0.353 | 0.726 | 0.87 | 0.463 | 1.44 | 1.42 | 1.41 | 1.26
E fixed | 2.13 | 0.838 | 0.301 | 0.674 | 0.934 | 0.454 | 1.82 | 1.65 | 1.51 | 1.06
F fixed | 0.677 | 1.07 | 1.65 | 1.12 | 1.11 | 1.33 | 0.585 | 1.32 | 0.973 | 0.94
G fixed | 0.565 | 0.515 | 0.568 | 0.821 | 0.921 | 0.263 | 1.11 | 0.917 | 1.03 | 1.02
H fixed | 0.582 | 1.04 | 1.2 | 1.55 | 1.24 | 0.555 | 1.04 | 0.944 | 0.967 | 1.13
I fixed | 1.21 | 0.776 | 1.75 | 0.789 | 0.637 | 5.08 | 0.736 | 0.746 | 0.857 | 0.79
K fixed | 0.295 | 0.932 | 0.78 | 1.23 | 1.23 | 0.279 | 0.915 | 0.682 | 0.924 | 1.06
L fixed | 0.935 | 0.918 | 1.4 | 0.889 | 0.838 | 2.88 | 0.9 | 0.814 | 0.955 | 0.921
M fixed | 1.58 | 0.86 | 1.25 | 0.98 | 0.956 | 1.26 | 0.806 | 0.932 | 0.945 | 1.01
N fixed | 0.466 | 1.2 | 0.692 | 0.896 | 1.01 | 0.433 | 1.19 | 1.25 | 1.01 | 1.21
P fixed | 0.143 | 0.67 | 0.721 | 0.986 | 1.07 | 0.38 | 1.13 | 0.962 | 0.989 | 0.949
Q fixed | 1.33 | 1.07 | 0.643 | 1.05 | 1.03 | 0.441 | 1.22 | 0.967 | 1.28 | 1.2
R fixed | 0.413 | 1.66 | 1.32 | 1.61 | 1.36 | 0.274 | 0.882 | 0.773 | 0.891 | 1.15
S fixed | 1.22 | 1.31 | 0.67 | 0.871 | 0.997 | 0.409 | 0.942 | 1.1 | 0.771 | 0.919
T fixed | 1.05 | 1.13 | 0.702 | 0.817 | 0.924 | 0.801 | 0.856 | 0.78 | 0.626 | 0.754
V fixed | 1.57 | 1.03 | 1.26 | 0.785 | 0.656 | 1.7 | 0.782 | 0.775 | 0.785 | 0.887
W fixed | 1.38 | 1.31 | 2.18 | 1.51 | 1.37 | 0.596 | 0.589 | 1.05 | 0.981 | 0.856
pThr fixed | 1.91 | 1.66 | 0.298 | 0.525 | 0.563 | 0.786 | 1.26 | 0.929 | 1.03 | 0.999
pTyr fixed | 1.08 | 1.3 | 0.4 | 0.683 | 0.779 | 2.06 | 0.955 | 1.08 | 1.02 | 0.894
